Substrate in data set [1]: N[C@@H](Cc1c[nH]c2ccccc12)C(=O)O
Nature of the data set: (§1) Activity of human full length CA6 at 10 uM by stopped flow CO2 hydration assay.

Substrate in data set [2]: N[C@H](Cc1c[nH]c2ccccc12)C(=O)O
The description is as §1.

B1: Carbonic anhydrase 6 (Homo sapiens), P23280 (protein)
chain: MRALVLLLSLFLLGGQAQHVSDWTYSEGALDEAHWPQHYPACGGQRQSPINLQRTKVRYNPSLKGLNMTGYETQAGEFPMVNNGHTVQISLPSTMRMTVADGTVYIAQQMHFHWGGASSEISGSEHTVDGIRHVIEIHIVHYNSKYKSYDIAQDAPDGLAVLAAFVEVKNYPENTYYSNFISHLANIKYPGQRTTLTGLDVQDMLPRNLQHYYTYHGSLTTPPCTENVHWFVLADFVKLSRTQVWKLENSLLDHRNKTIHNDYRRTQPLNHRVVESNFPNQEYTLGSEFQFYLHKIEEILDYLRRALN
B1: the kcat came out at 9.5 ×10⁵ /s in data set [1] and 4.8 ×10⁵ /s in data set [2].

The values are drawn from ChEMBL document CHEMBL1157628, “Carbonic anhydrase activators. The first activation study of a coral secretory isoform with amino acids and amines” (Bioorg Med Chem, 2010).
